Results reported in the Immune Epitope Database (IEDB).

Assays:
Test in all cases: IEDB peptide-MHC binding, purified MHC/competitive/radioactivity; ≥ and ≤ were set here for values at or beyond the usual limits of such assays
[1] = target: HLA-A*02:01
[2] = target: HLA-A*02:02
[3] = target: HLA-A*02:03
[4] = target: HLA-A*02:06
[5] = target: HLA-A*68:02
[6] = source organism: Vaccinia virus WR
[7] = source organism: Mammarenavirus machupoense
[8] = source organism: Mammarenavirus whitewaterense
[9] = source organism: Hepacivirus hominis
[10] = source organism: Mammarenavirus lassaense
[11] = source organism: Mammarenavirus guanaritoense

Sequence	IC50 [1, 6] [nM]	IC50 [2, 6] [nM]	IC50 [3, 6] [nM]	IC50 [4, 6] [nM]	IC50 [5, 6] [nM]	further results
DTCLLAISAV	46	2460	93	106	118	
FIPIIYSKA	163	0.56	1.8	95	78	
MAGVEVRYI	2310	293	201	2050	583	
YLRLYIILA	190	8.3	52	4180	2720	
KSFFWFNEV						IC50 [1, 7]: 6.5 nM; IC50 [2, 7]: 62 nM; IC50 [3, 7]: 265 nM; IC50 [4, 7]: 3.2 nM; IC50 [5, 7]: 84 nM
DIISSKQYPA	2890	552	2430	3100	220	
LAFVVFLLV						IC50 ([1]; source organism: SARS-CoV1): 610 nM; IC50 ([2]; source organism: SARS-CoV1): 458 nM; IC50 ([3]; source organism: SARS-CoV1): 1270 nM; IC50 ([4]; source organism: SARS-CoV1): 253 nM; IC50 ([5]; source organism: SARS-CoV1): 1000 nM
YMSNLFDIPL	18	19	10	127	471	
LIVAALVFL						IC50 ([1]; source organism: SARS-CoV1): 18 nM; IC50 ([2]; source organism: SARS-CoV1): 9.4 nM; IC50 ([3]; source organism: SARS-CoV1): 136 nM; IC50 ([4]; source organism: SARS-CoV1): 11 nM; IC50 ([5]; source organism: SARS-CoV1): 302 nM
LVKDESIQL	3150	122	649	1400	1470	
TVIKTLLEV						IC50 [1, 8]: 276 nM; IC50 [2, 8]: 2020 nM; IC50 [3, 8]: 53 nM; IC50 [4, 8]: 17 nM; IC50 [5, 8]: 2.8 nM
FLTGTFVTA	15	4.7	0.71	2.1	896	
FIMRNFLRSI	0.47	28	0.12	0.45	131	
MVLMTHFFSV						IC50 [1, 9]: 146 nM; IC50 [2, 9]: 808 nM; IC50 [3, 9]: 174 nM; IC50 [4, 9]: 15 nM; IC50 [5, 9]: 13 nM
LISLINSLV	15	0.48	0.48	72	68	
LMANLAPHLL						IC50 ([1]; source organism: SARS-CoV1): 30 nM; IC50 ([2]; source organism: SARS-CoV1): 0.23 nM; IC50 ([3]; source organism: SARS-CoV1): 1.5 nM; IC50 ([4]; source organism: SARS-CoV1): 115 nM; IC50 ([5]; source organism: SARS-CoV1): 1170 nM
ITTLLNETA	635	414	936	596	70	
FVNFVKDMI	1790	55	124	229	0.62	
NVFISPASI	136	202	0.73	660	1.9	
LNCLSLLLSV						IC50 [1, 10]: 191 nM; IC50 [2, 10]: 124 nM; IC50 [3, 10]: 230 nM; IC50 [4, 10]: 251 nM; IC50 [5, 10]: 4070 nM
IASSMKGENV	727	751	3240	311	867	
NVISKIYTLI	329	0.99	33	196	67	
SLVKPTVYV						IC50 ([1]; source organism: SARS-CoV1): 106 nM; IC50 ([2]; source organism: SARS-CoV1): 108 nM; IC50 ([3]; source organism: SARS-CoV1): 37 nM; IC50 ([4]; source organism: SARS-CoV1): 473 nM; IC50 ([5]; source organism: SARS-CoV1): 145 nM
QLMCQPILLL						IC50 ([1]; source organism: SARS-CoV1): 12 nM; IC50 ([2]; source organism: SARS-CoV1): 92 nM; IC50 ([3]; source organism: SARS-CoV1): 217 nM; IC50 ([4]; source organism: SARS-CoV1): 325 nM; IC50 ([5]; source organism: SARS-CoV1): 2310 nM
LMTLDDLAI	74	52	76	288	4410	
NVIGLIVIL	342	85	2400	15	0.17	
ELKHGLLDSI	738	540	55	1340	266	

Sequence	IC50 [1, 6] [nM]	IC50 [2, 6] [nM]	IC50 [3, 6] [nM]	IC50 [4, 6] [nM]	IC50 [5, 6] [nM]	further results
SLSNLDFRL	2880	1310	1760	1380	23	
NLETYTRPEI	1220	539	1500	636	2080	
TSVDLNAPV						IC50 [1, 11]: 464 nM; IC50 [2, 11]: 65 nM; IC50 [3, 11]: 841 nM; IC50 [4, 11]: 26 nM; IC50 [5, 11]: 0.26 nM
ILASFSAST						IC50 ([1]; source organism: SARS-CoV1): 16 nM; IC50 ([2]; source organism: SARS-CoV1): 1.6 nM; IC50 ([3]; source organism: SARS-CoV1): 5.3 nM; IC50 ([4]; source organism: SARS-CoV1): 457 nM; IC50 ([5]; source organism: SARS-CoV1): 1220 nM
GTSAAAYFV						IC50 ([1]; source organism: SARS-CoV1): 176 nM; IC50 ([2]; source organism: SARS-CoV1): 35 nM; IC50 ([3]; source organism: SARS-CoV1): 202 nM; IC50 ([4]; source organism: SARS-CoV1): 91 nM; IC50 ([5]; source organism: SARS-CoV1): 14 nM
GTSVIRSNI	666	386	45	1610	96	
NMLDDFSAGA	190	308	161	242	2600	
KLIEYSDFA						IC50 ([1]; source organism: SARS-CoV1): 0.54 nM; IC50 ([2]; source organism: SARS-CoV1): 0.095 nM; IC50 ([3]; source organism: SARS-CoV1): 0.53 nM; IC50 ([4]; source organism: SARS-CoV1): 0.71 nM; IC50 ([5]; source organism: SARS-CoV1): 10 nM
YIALCKVTV	15	12	24	19	48	
RAKRKPAMST	785	977	1380	1550	551	
PMSRLFMDEI	4020	1930	726	4370	1360	
CIVAAVIIMA	1900	1130	619	733	1.3	
FMSHVKSVT	873	508	181	4320	2600	
LAYYNSCMLT	485	12	16	86	4.9	
HLFTSMFSL						IC50 [1, 9]: 49 nM; IC50 [2, 9]: 5.2 nM; IC50 [3, 9]: 105 nM; IC50 [4, 9]: 627 nM; IC50 [5, 9]: 181 nM
IVNSVLLFL						IC50 ([1]; source organism: SARS-CoV1): 68 nM; IC50 ([2]; source organism: SARS-CoV1): 7.1 nM; IC50 ([3]; source organism: SARS-CoV1): 179 nM; IC50 ([4]; source organism: SARS-CoV1): 30 nM; IC50 ([5]; source organism: SARS-CoV1): 2090 nM
TAYIGTSNWT	4150	1760	1050	220	555	
FLLPSLATV						IC50 ([1]; source organism: SARS-CoV1): 0.34 nM; IC50 ([2]; source organism: SARS-CoV1): 0.13 nM; IC50 ([3]; source organism: SARS-CoV1): 0.2 nM; IC50 ([4]; source organism: SARS-CoV1): 0.41 nM; IC50 ([5]; source organism: SARS-CoV1): 16 nM
LIYDDNIDSI	658	121	26	212	199	
LIANIFTPLV						IC50 ([1]; source organism: SARS-CoV1): 12 nM; IC50 ([2]; source organism: SARS-CoV1): 0.4 nM; IC50 ([3]; source organism: SARS-CoV1): 13 nM; IC50 ([4]; source organism: SARS-CoV1): 16 nM; IC50 ([5]; source organism: SARS-CoV1): 19 nM
LTTVFIKYV	1060	3640	676	130	330	
TLLGLILFVL	35	169	796	672	720	
FLDWIKDIMT	50	424	146	140	4860	
YLMCLSPLMA						IC50 ([1]; source organism: SARS-CoV1): 0.65 nM; IC50 ([2]; source organism: SARS-CoV1): 0.24 nM; IC50 ([3]; source organism: SARS-CoV1): 0.13 nM; IC50 ([4]; source organism: SARS-CoV1): 1.3 nM; IC50 ([5]; source organism: SARS-CoV1): 166 nM
MLSVVGFLV						IC50 ([1]; source organism: SARS-CoV1): 7.7 nM; IC50 ([2]; source organism: SARS-CoV1): 1 nM; IC50 ([3]; source organism: SARS-CoV1): 3.5 nM; IC50 ([4]; source organism: SARS-CoV1): 116 nM; IC50 ([5]; source organism: SARS-CoV1): 92 nM
RIVVALSSLV	51	48	7.2	9.6	8.5	
